Reference: PMC4176361

What was measured:
[1] = target: His-tagged RctB fragment C208 (Vibrio cholerae); assay: AUC; sedimentation velocity, 50 000 rpm, 20°C; 0.3M NaCl, 0.025M Tris-HCl (pH 8.0), 0.0005M EDTA, 5% (v/v) glycerol; C137, C157 and C208 loaded at 3.6, 15 and 5.8 μM
[2] = target: His-tagged RctB fragment C208 (Vibrio cholerae); assay: SEC; Superdex 200 10/300 GL in RctB buffer; molar mass from peak position against protein standards
[3] = target: His-tagged RctB fragment C157 (Vibrio cholerae); assay: AUC; sedimentation velocity, 50 000 rpm, 20°C; 0.3M NaCl, 0.025M Tris-HCl (pH 8.0), 0.0005M EDTA, 5% (v/v) glycerol; C137, C157 and C208 loaded at 3.6, 15 and 5.8 μM
[4] = target: His-tagged RctB fragment C157 (Vibrio cholerae); assay: SEC; Superdex 200 10/300 GL in RctB buffer; molar mass from peak position against protein standards

Substance	stoichiometry N [1]	stoichiometry N [2]	stoichiometry N [3]	stoichiometry N [4]
His-tagged RctB fragment C208 (domain or fragment)	2	2		
His-tagged RctB fragment C157 (domain or fragment)			2	2
